Reference: paper PMC7586803, “Click‐Chemistry (CuAAC) Trimerization of an αvβ6 Integrin Targeting Ga‐68‐Peptide: Enhanced Contrast for in‐Vivo PET Imaging of Human Lung Adenocarcinoma Xenografts” (Chembiochem, 2020)
Where two headings read alike, the source gives them in different places.

Key:
[1] = physchem; type: physicochemical; conditions: pH 7.4
Experimental: To determine the n‐octanol/PBS distribution coefficients (log D 7.4), 650 μL octan‐1‐ol and 650 μL phosphate‐buffered saline (PBS, pH 7.4) were combined in a 1.5 mL Eppendorf tube. Approximately 0.5 MBq of the radiolabeled compound was added and vortexed for 2 min at 2850 rpm using a Vortex Genie2 (Scientific Industries). The samples were centrifuged (11 500 g, 10 min), after which 100 μL of the organic phase and 10 μL of the aqueous phase were taken out and the activities of the aliquots were quantified in a γ‐counter.

[2] = in vivo; conditions: female, CB17 SCID, mouse, iv, 120 pmol, total radioactivity
Experimental: (§1) Mice were used for biodistribution or PET when tumors had grown to a diameter of 8–10 mm (4–5 weeks after inoculation). β6 Integrin immunohistochemistry (IHC) was performed as described before.37
(§2) For biodistribution studies, the mice were administered approximately 120 pmol (3–8 MBq, depending on radiolabeling yield and decay) of the radiopharmaceuticals into the tail vein and allowed to wake up with access to food and water. […] Animals were sacrificed 90 min after injection, blood was immediately taken from the heart with a syringe, and the organs of interest (heart, lung, liver, spleen, pancreas, stomach (empty), small intestine (empty), large intestine (empty), kidneys, adrenals, muscle, tongue, tumor, tail) were dissected. The activity in weighed tissue samples was quantified by using a γ‐counter. Injected dose per gram tissue (%ID/g) was calculated from the organ weights and counted activities.

[3] = molecular target: T1, αvβ6 integrin (Homo sapiens, UniProt P06756+P18564); test: Solid-phase binding assay (ELISA on immobilized integrins), αvβ6
Experimental: (§3) After washing the plates with PBS‐T buffer (phosphate‐buffered saline/Tween20), free binding sites were blocked by incubation with TS‐B buffer (Tris‐saline/BSA). […] Surface‐bound integrin was detected by subsequent incubation with a specific primary antibody and a secondary peroxidase‐labeled antibody (anti‐mouse IgG‐POD, Sigma–Aldrich). After addition of the dye SeramunBlau (Seramun Diagnostic, Heidesee, Germany) and quenching of the reaction by addition of 3 M H2SO4, the absorbance at λ=450 nm was measured with a microplate reader (Tecan Genius, Männedorf, Switzerland). The IC50 value for each compound was determined in duplicate and the inhibition curves were analyzed by using OriginPro 9.0 software.

[4] = molecular target: T2, αvβ8 integrin (Homo sapiens, UniProt P06756+P26012); test: Solid-phase binding assay (ELISA on immobilized integrins), αvβ8; conditions: LAP(TGF-β)-coated plates, non-radioactive 69/71Ga complex, determined in duplicate, referenced to internal standard […], read-out: IC50 (95 % confidence interval) αvβ8
Experimental: as §3

[5] = tested on: H2009 xenografted SCID mice; test: in vivo; conditions: mouse
Experimental: as §1, §2

[6] = molecular target: T1, αvβ6 integrin; conditions: activity of the internal standard to which measured IC50 values were referenced; cited from earlier work
From the text: (§4) Table 1 Integrin affinities (expressed as 50 % inhibition concentrations, IC50), IC50‐based selectivities, and octanol/PBS distribution coefficients (log D 7.4).

[7] = molecular target: T2, αvβ8 integrin; conditions: activity of the internal standard to which measured IC50 values were referenced; cited from earlier work
From the text: as §4

[8] = %ID/g Tumor H2009 (tumor uptake)
[9] = tumor/organ ratio Heart (myocard)
[10] = tumor/organ ratio Large intestine (empty)
[11] = tumor/organ ratio Small intestine (empty)
[12] = tumor/organ ratio Stomach (empty)

T1 sequence (P06756 31-992 limits assumed): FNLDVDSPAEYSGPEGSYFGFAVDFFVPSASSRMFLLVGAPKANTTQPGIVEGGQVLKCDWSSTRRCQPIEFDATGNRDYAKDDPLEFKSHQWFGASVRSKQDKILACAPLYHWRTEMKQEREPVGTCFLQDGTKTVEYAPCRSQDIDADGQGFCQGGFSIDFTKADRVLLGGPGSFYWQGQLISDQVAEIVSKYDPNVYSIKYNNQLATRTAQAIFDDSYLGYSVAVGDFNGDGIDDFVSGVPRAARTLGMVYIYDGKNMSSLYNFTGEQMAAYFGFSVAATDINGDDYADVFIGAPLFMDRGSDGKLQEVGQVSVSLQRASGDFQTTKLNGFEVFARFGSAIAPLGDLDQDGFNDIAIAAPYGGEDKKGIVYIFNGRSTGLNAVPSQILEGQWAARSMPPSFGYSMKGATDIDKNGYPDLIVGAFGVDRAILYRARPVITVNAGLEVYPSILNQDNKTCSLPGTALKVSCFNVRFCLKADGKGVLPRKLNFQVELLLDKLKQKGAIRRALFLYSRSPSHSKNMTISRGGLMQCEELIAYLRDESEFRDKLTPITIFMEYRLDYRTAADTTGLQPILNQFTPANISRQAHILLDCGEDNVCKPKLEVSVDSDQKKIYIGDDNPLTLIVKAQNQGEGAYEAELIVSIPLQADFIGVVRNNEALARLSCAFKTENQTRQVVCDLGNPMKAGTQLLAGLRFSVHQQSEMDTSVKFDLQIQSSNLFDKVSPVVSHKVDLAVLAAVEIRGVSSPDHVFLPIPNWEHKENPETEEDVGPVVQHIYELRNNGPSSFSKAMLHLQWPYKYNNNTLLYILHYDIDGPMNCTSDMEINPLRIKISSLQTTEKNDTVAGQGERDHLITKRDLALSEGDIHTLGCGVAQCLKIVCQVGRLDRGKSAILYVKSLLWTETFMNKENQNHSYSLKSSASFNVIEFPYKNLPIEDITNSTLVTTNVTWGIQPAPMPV
T1 sequence (P18564 22-707 limits assumed): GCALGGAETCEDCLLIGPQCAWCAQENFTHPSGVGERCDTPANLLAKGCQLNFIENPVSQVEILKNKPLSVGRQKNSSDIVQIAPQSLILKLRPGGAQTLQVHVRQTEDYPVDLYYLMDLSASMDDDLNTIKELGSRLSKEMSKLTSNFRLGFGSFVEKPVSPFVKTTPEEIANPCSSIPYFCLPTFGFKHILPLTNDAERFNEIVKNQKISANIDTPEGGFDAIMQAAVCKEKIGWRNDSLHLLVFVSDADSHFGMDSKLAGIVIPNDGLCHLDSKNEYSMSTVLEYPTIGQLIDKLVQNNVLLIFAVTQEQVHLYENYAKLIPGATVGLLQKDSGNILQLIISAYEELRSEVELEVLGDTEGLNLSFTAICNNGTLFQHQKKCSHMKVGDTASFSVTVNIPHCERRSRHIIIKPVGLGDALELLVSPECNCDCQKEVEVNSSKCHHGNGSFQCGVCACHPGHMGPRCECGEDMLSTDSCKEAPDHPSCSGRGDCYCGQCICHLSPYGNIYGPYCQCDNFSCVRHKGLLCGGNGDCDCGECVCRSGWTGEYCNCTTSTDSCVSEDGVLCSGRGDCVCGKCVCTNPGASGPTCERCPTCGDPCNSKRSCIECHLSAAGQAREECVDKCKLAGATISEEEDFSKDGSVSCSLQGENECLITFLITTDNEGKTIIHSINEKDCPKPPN
T2 sequence (P06756 31-992 limits assumed): as the sequence (P06756 31-992 limits assumed) above
T2 sequence (P26012 43-684 limits assumed): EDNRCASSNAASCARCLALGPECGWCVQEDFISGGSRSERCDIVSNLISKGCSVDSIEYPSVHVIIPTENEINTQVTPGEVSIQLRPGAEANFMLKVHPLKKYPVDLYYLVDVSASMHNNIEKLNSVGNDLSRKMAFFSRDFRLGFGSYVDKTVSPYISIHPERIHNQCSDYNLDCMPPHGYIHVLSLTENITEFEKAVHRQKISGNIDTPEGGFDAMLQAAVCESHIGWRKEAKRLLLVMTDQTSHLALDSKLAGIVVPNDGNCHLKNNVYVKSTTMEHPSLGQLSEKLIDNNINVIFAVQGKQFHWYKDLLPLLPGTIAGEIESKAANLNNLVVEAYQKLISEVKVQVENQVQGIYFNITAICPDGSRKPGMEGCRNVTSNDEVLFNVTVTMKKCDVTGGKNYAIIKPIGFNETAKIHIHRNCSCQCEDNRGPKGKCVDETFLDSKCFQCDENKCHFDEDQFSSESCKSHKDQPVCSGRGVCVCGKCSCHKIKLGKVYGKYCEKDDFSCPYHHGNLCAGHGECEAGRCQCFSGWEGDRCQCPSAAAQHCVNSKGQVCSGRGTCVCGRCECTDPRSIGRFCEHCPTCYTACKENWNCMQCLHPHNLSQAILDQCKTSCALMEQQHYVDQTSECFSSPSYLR

Compound | logD [1] | tissue uptake at 1.5 h ([2]; %ID/g Adrenals) [%ID/g] | tissue uptake at 1.5 h ([2]; %ID/g Blood) [%ID/g] | tissue uptake at 1.5 h ([2]; %ID/g Heart (myocard)) [%ID/g] | tissue uptake at 1.5 h ([2]; %ID/g Kidneys) [%ID/g] | tissue uptake at 1.5 h ([2]; %ID/g Large intestine (empty)) [%ID/g] | tissue uptake at 1.5 h ([2]; %ID/g Liver) [%ID/g] | tissue uptake at 1.5 h ([2]; %ID/g Lung) [%ID/g] | tissue uptake at 1.5 h ([2]; %ID/g Muscle) [%ID/g] | tissue uptake at 1.5 h ([2]; %ID/g Pancreas) [%ID/g] | tissue uptake at 1.5 h ([2]; %ID/g Small intestine (empty)) [%ID/g] | tissue uptake at 1.5 h ([2]; %ID/g Spleen) [%ID/g] | tissue uptake at 1.5 h ([2]; %ID/g Stomach (empty)) [%ID/g] | tissue uptake at 1.5 h ([2]; %ID/g Tongue) [%ID/g] | tissue uptake at 1.5 h [2, 8] [%ID/g] | tissue to tissue ratio at 1.5 h ([2]; tumor/organ ratio Adrenals) | tissue to tissue ratio at 1.5 h ([2]; tumor/organ ratio Blood) | tissue to tissue ratio at 1.5 h [2, 9] | tissue to tissue ratio at 1.5 h ([2]; tumor/organ ratio Kidneys) | tissue to tissue ratio at 1.5 h [2, 10] | other results
N=C(N)NCCC[C@@H]1NC(=O)CC[C@@H](C(=O)NCCCC[C@H](NC(=O)c2ccc(NC(=O)CN3CCN(CC(=O)O)CCN(CC(=O)O)CC3)cc2)C(N)=O)NC(=O)[C@H](C2CCCCC2)NC(=O)[C@H](CC(=O)O)NC(=O)CNC1=O [^68Ga‐NOTA‐SDM17, metal not drawn] | -3.91 ± 0.07 | 0.28 ± 0.09 | 0.64 ± 0.05 | 0.2 ± 0.03 | 3.74 ± 0.73 | 0.22 ± 0.03 | 0.33 ± 0.04 | 0.47 ± 0.03 | 0.07 ± 0.01 | 0.15 ± 0.02 | 0.22 ± 0.01 | 0.32 ± 0.06 | 0.34 ± 0.06 | 0.28 ± 0.03 | 0.66 ± 0.03 | 2.5 ± 0.7 | 1 ± 0.1 | 3.3 ± 0.6 | 0.2 | 3.1 ± 0.4 | tissue to tissue ratio at 1.5 h ([2]; tumor/organ ratio Liver): 2 ± 0.3; tissue to tissue ratio at 1.5 h ([2]; tumor/organ ratio Lung): 1.4 ± 0.1; tissue to tissue ratio at 1.5 h ([2]; tumor/organ ratio Muscle): 9.7 ± 0.7; tissue to tissue ratio at 1.5 h ([2]; tumor/organ ratio Pancreas): 4.4 ± 0.8; tissue to tissue ratio at 1.5 h [2, 11]: 3 ± 0.1; tissue to tissue ratio at 1.5 h ([2]; tumor/organ ratio Spleen): 2.1 ± 0.4; tissue to tissue ratio at 1.5 h [2, 12]: 2 ± 0.4; tissue to tissue ratio at 1.5 h ([2]; tumor/organ ratio Tongue): 2.4 ± 0.3
N=C(N)NCCC[C@@H]1NC(=O)CC[C@@H](C(=O)NCCCC[C@H](NC(=O)CCc2cn(CCCNC(=O)CCP(=O)(O)CN3CCN(CP(=O)(O)CCC(=O)NCCCn4cc(CCC(=O)N[C@@H](CCCCNC(=O)[C@@H]5CCC(=O)N[C@@H](CCCNC(=N)N)C(=O)NCC(=O)N[C@@H](CC(=O)O)C(=O)N[C@@H](C6CCCCC6)C(=O)N5)C(N)=O)nn4)CCN(CP(=O)(O)CCC(=O)NCCCn4cc(CCC(=O)N[C@@H](CCCCNC(=O)[C@@H]5CCC(=O)N[C@@H](CCCNC(=N)N)C(=O)NCC(=O)N[C@@H](CC(=O)O)C(=O)N[C@@H](C6CCCCC6)C(=O)N5)C(N)=O)nn4)CC3)nn2)C(N)=O)NC(=O)[C@H](C2CCCCC2)NC(=O)[C@H](CC(=O)O)NC(=O)CNC1=O [^68Ga‐TRAP(SDM17)3, metal not drawn] | -4.08 ± 0.07 | 0.16 ± 0.02 | 0.19 ± 0.05 | 0.1 ± 0.03 | 21.8 ± 2.7 | 0.41 ± 0.09 | 0.34 ± 0.21 | 0.71 ± 0.15 | 0.1 ± 0.02 | 0.07 ± 0.01 | 0.31 ± 0.08 | 0.58 ± 0.11 | 1.04 ± 0.22 | 0.35 ± 0.09 | 2.06 ± 0.34 | 12.5 ± 1.6 | 11.2 ± 1.9 | 21.7 ± 3 | 0.1 | 5.1 ± 1.2 | IC50 ([3]; ELISA, LAP(TGF-β)-coated plates, non-radioactive 69/71Ga complex, determined in duplicate, referenced to internal standard […], read-out: IC50 (95 % confidence interval) αvβ6): 0.26 nM; Selectivity for αvβ6 over αvβ8 ([3]; IC50-based selectivity factor (IC50 αvβ8 / IC50 αvβ6)): 662; IC50 [4]: 172 nM; tissue to tissue ratio at 1.5 h ([2]; tumor/organ ratio Liver): 8.7 ± 5.2; tissue to tissue ratio at 1.5 h ([2]; tumor/organ ratio Lung): 3 ± 0.4; tissue to tissue ratio at 1.5 h ([2]; tumor/organ ratio Muscle): 22.3 ± 6.6; tissue to tissue ratio at 1.5 h ([2]; tumor/organ ratio Pancreas): 29.7 ± 3; tissue to tissue ratio at 1.5 h [2, 11]: 7 ± 1.7; tissue to tissue ratio at 1.5 h ([2]; tumor/organ ratio Spleen): 3.6 ± 0.6; tissue to tissue ratio at 1.5 h [2, 12]: 2 ± 0.4; tissue to tissue ratio at 1.5 h ([2]; tumor/organ ratio Tongue): 6.2 ± 1.8; higher tumor uptake than monomer [5]: threefold
RTDLDSLRT | – | – | – | – | – | – | – | – | – | – | – | – | – | – | – | – | – | – | – | – | IC50 [6]: 33 nM; IC50 [7]: 100 nM
